Assay results: US20110165161A1, “ANTI-EPCAM ANTIBODIES THAT INDUCE APOPTOSIS OF CANCER CELLS AND METHODS USING SAME” (priority 2009, published 2011)

T1: human EpCAM (CHO/EpCAM cells) (Homo sapiens, UniProt P16422)
T1 construct: full-length of human EpCAM (aa 1-314); expressed in transfected cells; host or cells: CHO (Chinese hamster ovary) cells
T1 sequence (P16422 24-314): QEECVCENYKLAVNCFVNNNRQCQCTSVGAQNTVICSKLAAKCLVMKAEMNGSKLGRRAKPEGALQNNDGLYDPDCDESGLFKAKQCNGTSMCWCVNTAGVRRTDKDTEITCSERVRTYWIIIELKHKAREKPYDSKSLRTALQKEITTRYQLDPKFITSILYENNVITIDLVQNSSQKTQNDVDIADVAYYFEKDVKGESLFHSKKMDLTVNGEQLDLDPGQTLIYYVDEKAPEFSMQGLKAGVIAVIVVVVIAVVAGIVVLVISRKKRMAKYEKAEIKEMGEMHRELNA

B1: 1F10: murine anti-human EpCAM monoclonal antibody (IgG1, λ1), hybridoma m338-1F10.3; VH SEQ ID NO:11, VL SEQ ID NO:13 (antibody, listed as Mus musculus, V domains shown)
VH: EVKLLESGGGLVQPGGSLKLSCAASGFDFSRYWMSWVRQAPGKGLEWIGEINPDSSTMNYTPSLKDKFIISRDNAKNTLYLQMSKVRSEDTALYYCARGAYAMDYWGQGTSVTVSS
VL: QAVVTQESALTTSPGETVTLTCRSSTGAVTTSNNANWVQEKPDHLFTGLIGATNNRAPGVPARFSGSLIGDKAALTITGAQTEDEAIYFCALWYINHWVFGGGTKLTVLG
B2: 1G10: murine anti-human EpCAM monoclonal antibody (IgG1, K), hybridoma m290-1G10; VH SEQ ID NO:7, VL SEQ ID NO:9 (antibody, listed as Mus musculus, V domains shown)
VH: QIQLVQSGPELKKPGETVKISCKASGYTFTNYGMNWVKQAPGKGFKWMGWINTYTGEPTYADDFKGRFAFSLETSASTAYLQINNLQNEDMATYFCARWGYDFDYWGQGTTLTVSS
VL: QIVLTQSPAIMSSSPGEKVTMTCSASSSISYMNWYQQKPGTSPKRWIYDTSKLASGVPARFSGSGSGTSYSLTISSMEAEDAATYYCHQRSSYPYTFGGGTKLEIKR

What was measured:
[1] = molecular target: T1, human EpCAM (CHO/EpCAM cells); test: FACS binding of anti-EpCAM antibodies to CHO/EpCAM cells; conditions: antibody 0.1 μg/ml; HPS at 300x dilution
Method: The cDNAs encoding full-length of human EpCAM (aa 1-314) were amplified by PCR from the cDNA pool generated from T-47D cells and cloned into the modified pcDNA 3.1/Myc-His(+) A vector (Invitrogen), followed by transfecting into Chinese hamster ovary (CHO) cells at 80-90% confluence in 6-well culture dishes, using Lipofectamine 2000 (Invitrogen, Cat. No. 11668-500). Transfectants were selected in F12/10% FBS medium containing 600 ug/ml Hygromycin B (C.A. IN-10687-010). Transfected cells expressing hEpCAM were identified by flow cytometry with anti-EpCAM antibodies.
1×10^5 CHO/EpCAM or CHO parental cells were seeded in each well of a v-bottomed 96-well plate and incubated with purified anti-EpCAM antibodies or mouse IgG control antibody 9E10 at concentration of 0.1 μg/ml. A 300× dilution of human cell hyper-immune serum (HPS 300×) was used as binding positive control for both cell lines here. After 1 hr incubation at 4° C., cells were washed twice with 200 μl FACS buffer (1×PBS containing 1% FBS), stained with 100 μl of 1 μg/ml goat-anti-mouse IgG-PE (Southern Biotech, Cat. No. 1032-09) in FACS buffer and then incubated at 4° C. for 30 min. Cells were washed thrice with FACS buffer and analyzed by flow cytometry (BD LSR, BD Life Sciences).

[2] = tested on: Colorectal cancer DLD-1 cells; test: Antibody cytotoxicity assay (Annexin V + PI), DLD-1; type: cell-based; conditions: for Induction of cell death (in words): 1, 3 and 10 μg/ml, overnight; for Cytotoxic effect (Annexin V + PI staining, dead cells): 17-20 hr
Method: (§1) After a 17-20 hr incubation at 37° C., cells were stained with 0.3 μl of FITC-conjugated Annexin V (Strong Biotech Corp. Cat. No. AVK250) in 50 μl Annexin V binding buffer (Strong Biotech Corp. Cat. No. AVK250) at RT for 20 min. After wash, the cells were then stained with 0.3 μl of propidium iodide in 200 μl Annexin V binding buffer. Annexin V and Propidium Iodide were used as a joint indicator for cell death. The data were acquired with BD FACSCalibur based on an acquisition of 3,000-5,000 cells and analyzed with the Cell Quest software. The combined percentages of the Annexin V+/PI+, Annexin V+/PI− and Annexin V−/PI+populations were considered as dead cells.

[3] = tested on: Prostate cancer LNCaP cells; test: Antibody cytotoxicity assay (Annexin V + PI), LNCaP; type: cell-based; conditions: for Induction of cell death (in words): 1, 3 and 10 μg/ml, overnight; for Cytotoxic effect (Annexin V + PI staining, dead cells): 17-20 hr
Method: as §1

[4] = tested on: Breast cancer T-47D cells; test: Antibody cytotoxicity assay (Annexin V + PI), T-47D; type: cell-based; conditions: for Induction of cell death (in words): 1, 3 and 10 μg/ml, overnight; for Cytotoxic effect (Annexin V + PI staining, dead cells): 17-20 hr
Method: as §1

[5] = tested on: Ovarian cancer NIH:OVCAR-3 cells; test: Antibody cytotoxicity assay (Annexin V + PI), NIH:OVCAR-3; type: cell-based; conditions: for Induction of cell death (in words): 1, 3 and 10 μg/ml, overnight; for Cytotoxic effect (Annexin V + PI staining, dead cells): 17-20 hr
Method: as §1

Molecule	Binding (FACS, Mean fluorescence intensity (MFI)) CHO/EpCAM [1]	Induction of cell death (in words) [2]	Cytotoxic effect (Annexin V + PI staining, dead cells) ([2]; mAb 1.0 μg/ml)	Cytotoxic effect (Annexin V + PI staining, dead cells) ([2]; mAb 3.0 μg/ml)	Cytotoxic effect (Annexin V + PI staining, dead cells) ([2]; mAb 10 μg/ml)	Induction of cell death (in words) [3]	Cytotoxic effect (Annexin V + PI staining, dead cells) ([3]; mAb 1.0 μg/ml)	Cytotoxic effect (Annexin V + PI staining, dead cells) ([3]; mAb 3.0 μg/ml)	Cytotoxic effect (Annexin V + PI staining, dead cells) ([3]; mAb 10 μg/ml)	Induction of cell death (in words) [4]	Cytotoxic effect (Annexin V + PI staining, dead cells) ([4]; mAb 1.0 μg/ml)	Cytotoxic effect (Annexin V + PI staining, dead cells) ([4]; mAb 3.0 μg/ml)	Cytotoxic effect (Annexin V + PI staining, dead cells) ([4]; mAb 10 μg/ml)	Induction of cell death (in words) [5]	Cytotoxic effect (Annexin V + PI staining, dead cells) ([5]; mAb 1.0 μg/ml)	Cytotoxic effect (Annexin V + PI staining, dead cells) ([5]; mAb 3.0 μg/ml)	Cytotoxic effect (Annexin V + PI staining, dead cells) ([5]; mAb 10 μg/ml)
B1	5634	substantial cell death	65%	65%	61%	substantial cell death	47%	53%	48%	substantial cell death	51%	50%	50%	substantial cell death	53%	57%	59%
B2	6178	substantial cell death	28%	40%	60%	substantial cell death	42%	55%	45%	substantial cell death	45%	58%	64%	substantial cell death	40%	50%	52%
